B1: Astrotactin-1 (Homo sapiens), O14525-2 (parent)
chain: MALAGLCALLACCWGPAAVLATAAGDVDPSKELECKLKSITVSALPFLRENDLSIMHSPSASEPKLLFSVRNDFPGEMVVVDDLENTELPYFVLEISGNTEDIPLVRWRQQWLENGTLLFHIHHQDGAPSLPGQDPTEEPQHESAEEELRILHISVMGGMIALLLSILCLVMILYTRRRWCKRRRVPQPQKSASAEAANEIHYIPSVLIGGHGRESLRNARVQGHNSSGTLSIRETPILDGYEYDITDLRHHLQRECMNGGEDFASQVTRTLDSLQGCNEKSGMDLTPGSDNAKLSLMNKYKDNIIATSPVDSNHQQATLLSHTSSSQRKRINNKARAGSAFLNPEGDSGTEAENDPQLTFYTDPSRSRRRSRVGSPRSPVNKTTLTLISITSCVIGLVCSSHVNCPLVVKITLHVPEHLIADGSRFILLEGSQLDASDWLNPAQVVLFSQQNSSGPWAMDLCARRLLDPCEHQCDPETGECLCYEGYMKDPVHKHLCIRNEWGTNQGPWPYTIFQRGFDLVLGEQPSDKIFRFTYTLGEGMWLPLSKSFVIPPAELAINPSAKCKTDMTVMEDAVEVREELMTSSSFDSLEVLLDSFGPVRDCSKDNGGCSKNFRCISDRKLDSTGCVCPSGLSPMKDSSGCYDRHIGVDCSDGFNGGCEQLCLQQMAPFPDDPTLYNILMFCGCIEDYKLGVDGRSCQLITETCPEGSDCGESRELPMNQTLFGEMFFGYNNHSKEVAAGQVLKGTFRQNNFARGLDQQLPDGLVVATVPLENQCLEEISEPTPDPDFLTGMVNFSEVSGYPVLQHWKVRSVMYHIKLNQVAISQALSNALHSLDGATSRADFVALLDQFGNHYIQEAIYGFEESCSIWYPNKQVQRRLWLEYEDISKGNSPSDESEERERDPKVLTFPEYITSLSDSGTKHMAAGVRMECHSKGRCPSSCPLCHVTSSPDTPAEPVLLEVTKAAPIYELVTNNQTQRLLQEATMSSLWCSGTGDVIEDWCRCDSTAFGADGLPTCAPLPQPVLRLSTVHEPSSTLVVLEWEHSEPPIGVQIVDYLLRQEKVTDRMDHSKVETETVLSFVDDIISGAKSPCAMPSQVPDKQLTTISLIIRCLEPDTIYMFTLWGVDNTGRRSRPSDVIVKTPCPVVDDVKAQEIADKIYNLFNGYTSGKEQQTAYNTLLDLGSPTLHRVLYHYNQHYESFGEFTWRCEDELGPRKAGLILSQLGDLSSWCNGLLQEPKISLRRSSLKYLGCRYSEIKPYGLDWAELSRDLRKTCEEQTLSIPYNDYGDSKEI
B2: Astrotactin-1 (Mus musculus), Q61137-2 (parent)
chain: MALAGLCALFACCWGPAAVLATAAGDVDPSKELECKLKSITVSALPFLRENDLSIMHSPSASEPKLLFSVRNDFPGEMVVVDDLENTELPYFVLEISGNTEDIPLVRWRQQWLENGTLLFHIHHQDGAPSLPGQDPTEEPQHESAEEELRILHISVMGGMIALLLSILCLVMILYTRRRWCKRRRVPQPQKSASAEAANEIHYIPSVLIGGHGRESLRNARVQGHNSSGTLSIRETPILDGYEYDITDLRHHLQRECMNGGEDFASQVTRTLDSLQGCNEKSGMDLTPGSDNAKLSLMNKYKDNIIATSPVDSNHQQATLLSHTSSSQRKRINNKARAGSAFLNPEGDSSTEAENDPQLTFYTDPSRSRRRSRVGSPRSPVNKTTLTLISVTSCVIGLVCSSHVSCPLVVKITLHVPEHLIADGSRFILLEGSQLDASDWLNPAQVVLFSQQNSSGPWAMDLCARRLLDPCEHQCDPETGECLCYEGYMKDPVHKHLCIRNEWGTNQGPWPYTIFQRGFDLVLGEQPSDKIFRFTYTLGEGMWLPLSKSFVIPPAELAINPSAKCKTDMTVMEDAVEVREELMTSSSFDSLEVLLDSFGPVRDCSKDNGGCSKNFRCISDRKLDSTGCVCPSGLSPMKDSSGCYDRHIGVDCSDGFNGGCEQLCLQQMAPFPEDPTLYNILMFCGCIEDYKLGVDGRSCQLVTETCPEGGDCGESREVPMNQTLFGEMFFGYNNQSKEVATGQVLKGTFRQNNFARGLDQQLPDGLVVASVPLENQCLEEISEPTPDPDFLTGMVNFSEVSGYPVLQHWKVRSVMYHIKLNQAAISQAFSNALHSLDGATSRADFVALLDQFGNHYIQEAVYGFEESCSIWYPNKQVQRRLWLEYEDISKGNSPSDESEERERDPKVLTFPEYIASLSDSGTKRMAAGVRMECQSKGRCPSSCPLCHVTSSPETPAEPVLLEVTRASPIYELVTNNQTQRLLQEATMSSLWCSGTGDVIEDWCRCDSTAFGADGLPTCAPLPQPVLRLSTVHEPSSNLVVLEWEHSEPPIGVQIVDYLIRQEKVTDRMDHSKVETETVLSFVDDIISGAKAPCAMPSQVPDKQLTTISLIIRCLEPDTIYMFTLWGVDNTGRRSRPSDVIVKTPCPVVDDVKAQEIADKIYNLFNGYTSGKEQQTAYNTLLDLGSPTLHRVLYHYNQHYESFGEFTWRCEDELGPRKAGLILSQLGDLSSWCNGLLQEPKISLRRGSLKYLGCRYSEIKPYGLDWSELSRDLRKTCEEQTLSVPYNDYGDSKDI
B3: Nuclear factor erythroid 2-related factor 2 (Mus musculus), Q60795 (parent)
chain: MMDLELPPPGLQSQQDMDLIDILWRQDIDLGVSREVFDFSQRQKDYELEKQKKLEKERQEQLQKEQEKAFFAQFQLDEETGEFLPIQPAQHIQTDTSGSASYSQVAHIPKQDALYFEDCMQLLAETFPFVDDHESLALDIPSHAESSVFTAPHQAQSLNSSLEAAMTDLSSIEQDMEQVWQELFSIPELQCLNTENKQLADTTAVPSPEATLTEMDSNYHFYSSISSLEKEVGNCGPHFLHGFEDSFSSILSTDDASQLTSLDSNPTLNTDFGDEFYSAFIAEPSDGGSMPSSAAISQSLSELLDGTIEGCDLSLCKAFNPKHAEGTMEFNDSDSGISLNTSPSRASPEHSVESSIYGDPPPGFSDSEMEELDSAPGSVKQNGPKAQPAHSPGDTVQPLSPAQGHSAPMRESQCENTTKKEVPVSPGHQKAPFTKDKHSSRLEAHLTRDELRAKALHIPFPVEKIINLPVDDFNEMMSKEQFNEAQLALIRDIRRRGKNKVAAQNCRKRKLENIVELEQDLGHLKDEREKLLREKGENDRNLHLLKRRLSTLYLEVFSMLRDEDGKPYSPSEYSLQQTRDGNVFLVPKSKKPDTKKN

Variants of: B1
Settings: with keap1_human KEAP1, Q14145
Sequence of keap1_human KEAP1, Q14145 (Q14145 whole entry): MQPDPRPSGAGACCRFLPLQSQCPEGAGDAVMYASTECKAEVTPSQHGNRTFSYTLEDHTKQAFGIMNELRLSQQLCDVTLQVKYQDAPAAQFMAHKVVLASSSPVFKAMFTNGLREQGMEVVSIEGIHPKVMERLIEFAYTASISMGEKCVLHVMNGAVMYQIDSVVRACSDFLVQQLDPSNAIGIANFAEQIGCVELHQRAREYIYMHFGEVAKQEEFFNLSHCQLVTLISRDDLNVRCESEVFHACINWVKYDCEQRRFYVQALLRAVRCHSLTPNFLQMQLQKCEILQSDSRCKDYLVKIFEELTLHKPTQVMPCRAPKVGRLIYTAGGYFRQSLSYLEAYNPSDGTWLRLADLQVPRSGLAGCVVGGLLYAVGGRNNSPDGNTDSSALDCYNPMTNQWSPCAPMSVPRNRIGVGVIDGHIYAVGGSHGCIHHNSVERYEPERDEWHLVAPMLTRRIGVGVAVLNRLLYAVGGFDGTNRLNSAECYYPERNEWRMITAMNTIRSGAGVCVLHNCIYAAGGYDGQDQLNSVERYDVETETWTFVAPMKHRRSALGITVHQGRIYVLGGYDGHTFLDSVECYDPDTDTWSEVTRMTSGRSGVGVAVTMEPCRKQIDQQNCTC

Variant	effect of a mutation on the interaction
C475L	with no effect
C475S	decreasing interaction strength
C475S;C482S	with no effect
C475S;C484S	decreasing interaction strength
D476A;E478A	disrupting interaction strength
C482S	with no effect
C482S;C484S	increasing interaction strength
C484S	with no effect

Variants of: B1
Settings: with keap1_human KEAP1, Q14145
Remark: another data set of the same source

Variant	effect of a mutation on the interaction
D476A;E478A	decreasing interaction strength

Variants of: B2
Settings: with keap1_mouse Keap1, Q9Z2X8
Target sequence in this assay (Q9Z2X8 whole entry): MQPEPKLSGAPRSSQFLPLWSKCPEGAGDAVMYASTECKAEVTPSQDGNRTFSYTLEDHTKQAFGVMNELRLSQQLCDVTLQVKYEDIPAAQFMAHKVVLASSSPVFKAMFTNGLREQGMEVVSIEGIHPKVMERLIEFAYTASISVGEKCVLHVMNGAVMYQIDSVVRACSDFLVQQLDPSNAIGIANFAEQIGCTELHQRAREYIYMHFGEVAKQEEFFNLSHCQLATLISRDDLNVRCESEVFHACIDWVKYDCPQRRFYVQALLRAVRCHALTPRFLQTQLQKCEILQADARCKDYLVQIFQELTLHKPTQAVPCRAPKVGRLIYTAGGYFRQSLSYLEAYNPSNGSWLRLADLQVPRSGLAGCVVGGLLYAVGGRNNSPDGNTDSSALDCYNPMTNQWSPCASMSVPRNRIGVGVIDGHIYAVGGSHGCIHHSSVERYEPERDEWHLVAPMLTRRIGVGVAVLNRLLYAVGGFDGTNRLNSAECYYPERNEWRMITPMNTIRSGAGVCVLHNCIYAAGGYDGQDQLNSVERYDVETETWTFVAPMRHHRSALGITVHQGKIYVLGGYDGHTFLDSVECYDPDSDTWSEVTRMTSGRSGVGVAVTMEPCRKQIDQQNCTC

Variant	effect of a mutation on the interaction
D476A;E478A	with no effect

Variants of: B3
Settings: with keap1_mouse Keap1, Q9Z2X8
Target sequence in this assay (Q9Z2X8 whole entry): as above

Variant	effect of a mutation on the interaction
D77A;E79A	disrupting interaction strength

Reference: IntAct's records for PubMed 31169361
